Laboratory results: patent US20110008340A1 (published 2011)
Each block holds one binder with its values, some of them ahead of it.

Tests used:
human C3b = human C3b (human, UniProt P01024 23-667; P01024 749-1663, limits assumed); assay: cell-based or functional assay
TSR6 peptide = target: T1, TSR6 peptide (human); assay: ELISA on plate-bound peptide
T1 construct: Synthetic peptide 'corresponding to TSR6'; also called TSR6 segment of properdin
T1 peptide: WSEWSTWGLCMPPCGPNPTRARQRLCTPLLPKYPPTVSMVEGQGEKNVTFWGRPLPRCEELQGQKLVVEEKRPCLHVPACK
Experimental: (§1) Screening Assay: Microtiter plates were coated with peptide⁷¹⁻¹¹⁰. (2.0 μg/50 μl per well), TSR5 and TSR6 peptides in phosphate buffered saline (PBS) overnight at 4° C. After aspirating the peptide solutions, the wells were blocked with PBS containing 1% bovine serum albumin (BSA) for 2 hours at room temperature. Wells without peptide coating served as background controls. […] The plate was incubated at room temperature for 1-hour. The plate developed using standard ELISA methods described above.

TSR5 peptide = target: T2, TSR5 peptide (human); assay: ELISA on plate-bound peptide
T2 construct: Synthetic peptide 'corresponding to TSR5'; also called TSR5 segment of properdin
T2 peptide: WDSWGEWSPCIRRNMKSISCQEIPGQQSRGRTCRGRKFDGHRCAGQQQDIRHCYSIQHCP
Experimental: as §1

- IC50 of inhibition of MAC (C5b-9) formation, LPS-coated wells, 10% normal human serum (human C3b): ~50 µg/mL
B1: Properdin peptide RYRRCVGWNG (99-108) (peptide)
peptide: RYRRCVGWNG

- binding result (TSR6 peptide): no binding
- binding result (TSR5 peptide): no binding
B2: MoAb^71-110 (antibody, V domains shown)
VH: QVLLQQSAPELARPGASVKMSCTASGYIFTNYPIHWVKQRPGQGLEWIGFIDPGGGYDEPDERFRDRATLTADKSSSTAYMQLSSLTSEDSAIYYCARRGGGYYLDYWGQDTTLTVSA
VL: SIVMTQTPKFLLVSAGDRITITCKASQSVNNDVAWYQQKPGQSPKLLIYYASNRYTGVPDRFTGSGYGTDFTFTITTVKAEDLAVYFCQQDYSSPLTFGAGTKLELK
notes: Mouse monoclonal antibody from a hybridoma; also called MoAbB^71-110; anti properdin antibody clone MoAb^71-110
